# Measurements reported in paper PMC5575927.
# Assays:
# [1] = substrate: CC(=O)N[C@H](C(=O)N[C@@H](CC(C)C)C(=O)NCC(=O)N[C@@H](CCCCN)C(=O)Nc1ccc2c(C)cc(=O)oc2c1)C(C)C; assay: Fluorogenic AMC release; assay type: biochemical; settings: pH 7.4; 25.0 °C
# [2] = substrate: CC(=O)N[C@H](C(=O)N[C@@H](CC(C)C)C(=O)N[C@H](C(=O)N[C@@H](CCCCN)C(=O)Nc1ccc2c(C)cc(=O)oc2c1)[C@@H](C)O)C(C)C; assay: Fluorogenic AMC release; assay type: biochemical; settings: pH 7.4; 25.0 °C
protein,measurement,setting,value
PmC11 (Parabacteroides merdae) (protein) ETPEPRTTRTILVYMMANNSLNSFASKNIESMIEGATSKNLNGGNLIVYYAPAGSPPELLRIKEENGVVKKIHLKDYEKQNSADPDVMRSVIGEVVSQYPADSYGLVLWSHGTAWLPSDYQNKLKAFGQDGNNWMEIDDLAKGLPDDLFDFILFDACYMASVECTYELRNKAEYILASPTETMADGWPYEEMMPQLFATDLQLEKVGETFYNHYLNNTYPYATVSLTKTSELDNLKSVTHDILADKTESDIYSLDPKKMQRLEYLYRSPGMLYDFNDYIKQLATAEQYDRFISCLDKAVVYKAHTPKSYYAAIGNALPIKSYCGLTIFVPQESLPKMLEWYKQRVGWYKAVYE,Km,[1],~185.8 µM
same,Km,[2],20.4 µM
